Patent US20090155250A1 (US Dept. of Health and Human Services, published 2009)

B1: chimpanzee/human anti-B5 MAb 8AH8AL (antibody, V domains shown)
VH: EVQLLESGGGLIKPGGSLRLSCAASGFIFRDYNINWVRQAPGKGLEWLGFIRTRASGRSTEYSASVKGRFTISRDDSKNIAYLHINSLKMEDTAVYYCAKKGDSYYYMDFWGKGTAVTVS
VL: ELALTQPASVSGSPGQSITISCTGGRSDLGDSNFVSWYQQYPGKAPKLLIYQVNKRPSGVPDRFSASKSANTASLTISGLQTEDEADYFCSSYTTTSTYVFGIGTKVVVLG
notes: also called anti-B5 8AH8AL; Anti-B5 8AH8AL
B2: chimpanzee/human anti-B5 MAb 8AH7AL (antibody, V domains shown)
VH: B1 VH
VL: ELALTQPPSVSGSPGQSITISCTGTSSDVGGHNGVSWYQQYPGKAPKVMIYEVNKRPSGVSNRLSGSKSGNTASLTISGLQAEDEGDYYCSSYRNGGSVVFGGGTKLTVLG
notes: also called anti-B5 8AH7AL

How the values were obtained:
[1] = molecular target: T1, BSA (UniProt P02769 25-607); assay: ELISA, wells coated with the unrelated protein, IgG titrated
T1 construct: Unrelated control protein
T1 sequence (P02769 25-607 limits assumed): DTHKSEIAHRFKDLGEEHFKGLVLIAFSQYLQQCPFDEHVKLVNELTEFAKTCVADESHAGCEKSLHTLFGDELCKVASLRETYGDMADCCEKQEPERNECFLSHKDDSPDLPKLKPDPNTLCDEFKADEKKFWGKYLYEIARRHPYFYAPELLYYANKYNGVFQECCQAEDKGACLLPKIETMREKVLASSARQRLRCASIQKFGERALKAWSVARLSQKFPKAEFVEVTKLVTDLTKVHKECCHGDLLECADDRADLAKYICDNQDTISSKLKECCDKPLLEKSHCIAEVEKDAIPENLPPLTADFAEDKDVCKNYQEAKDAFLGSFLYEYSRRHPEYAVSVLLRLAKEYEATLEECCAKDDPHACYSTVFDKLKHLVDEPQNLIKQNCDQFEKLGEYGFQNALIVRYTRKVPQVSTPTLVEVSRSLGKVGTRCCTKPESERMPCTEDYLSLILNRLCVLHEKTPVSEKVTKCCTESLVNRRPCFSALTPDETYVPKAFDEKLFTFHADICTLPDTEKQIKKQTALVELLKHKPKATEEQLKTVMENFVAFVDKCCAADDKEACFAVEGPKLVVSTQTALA

[2] = molecular target: T1, BSA; assay: ELISA, protein coated on wells

| Binder | binding result [1] | binding result [2] |
| --- | --- | --- |
| B1 | no binding (tested: 10^4 ng/ml) |  |
| B2 |  | no binding |
